Measurements as given in PMC11321707.

Legend:
[1] = diffusion-ordered NMR spectroscopy (DOSY); R5 in the presence of Pi, 25 °C; hydrodynamic radius by Stokes-Einstein, spherical model; monomer to trimer; conditions: other: diffusion-ordered NMR spectroscopy (DOSY)
[2] = 1H-15N HSQC NMR (signal loss and chemical shift perturbation upon self-assembly); R5 in phosphate-buffered solution, 50 mM Pi, pH 6.5, 25 °C; compared with R5 without Pi; conditions: other: 1H-15N HSQC NMR (signal loss and chemical shift perturbation upon self-assembly)
[3] = 1H-15N HSQC NMR (signal loss and chemical shift perturbation upon self-assembly); R5 in phosphate-buffered solution, 11.8 mM Pi, pH 6.5, 25 °C; compared with R5 without Pi; conditions: other: 1H-15N HSQC NMR (signal loss and chemical shift perturbation upon self-assembly)

In the case of R5 peptide, the “N with Pi” value [1] is reported as “an aggregate volume that fits three R5 units”, the “percent of the peptides outside the large self-assemblies, with Pi” value [2] is reported as “≈0.7 and ≈0.01% of the peptides remained outside the large self‐assemblies” and the “percent of the peptides outside the large self-assemblies, with Pi” value [3] is reported as “≈0.7 and ≈0.01% of the peptides remained outside the large self‐assemblies”.
